One test deals with T1, GLP-2R (Homo sapiens, UniProt O95838).
T1 construct: expressed in transfected cells; host or cells: CHO-K1
T1 sequence (O95838 1-553): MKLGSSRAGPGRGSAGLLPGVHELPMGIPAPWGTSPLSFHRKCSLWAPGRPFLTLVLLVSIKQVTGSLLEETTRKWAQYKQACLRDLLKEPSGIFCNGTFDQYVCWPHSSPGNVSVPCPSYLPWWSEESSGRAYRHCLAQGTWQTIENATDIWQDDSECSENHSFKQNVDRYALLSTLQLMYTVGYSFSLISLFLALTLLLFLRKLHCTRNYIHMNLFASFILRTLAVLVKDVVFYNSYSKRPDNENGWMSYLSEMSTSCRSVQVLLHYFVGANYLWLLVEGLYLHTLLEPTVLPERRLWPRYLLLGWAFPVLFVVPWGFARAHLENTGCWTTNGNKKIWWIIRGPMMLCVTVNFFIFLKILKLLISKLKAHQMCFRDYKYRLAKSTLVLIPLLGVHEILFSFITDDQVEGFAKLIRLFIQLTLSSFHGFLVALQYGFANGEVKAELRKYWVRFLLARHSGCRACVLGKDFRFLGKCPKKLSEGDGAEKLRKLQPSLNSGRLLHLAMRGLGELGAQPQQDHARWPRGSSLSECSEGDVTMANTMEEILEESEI
Kind of test: Determination of GLP-2 activity: cAMP chemiluminescence (RLU) in CHO-K1 cell line stably expressing GLP-2R. Type of test: cell-based. The note with it: read-out: GLP-2 activity [EC50 (nmol)]. As to the method:
(§1) GLP-2R, under the stimulation of its specific agonist, can activate the intracellular adenylate cyclase pathway, and increase the level of cAMP, finally leading to the generation and release of insulin. The stimulation of the cell lines stably transfected with […] by the agonist to be tested can lead to rapid increase in the intracellular cAMP level, and the relative light units (RLUs) after stimulating the cells at each dose are determined by chemiluminescence method to calculate the EC50 of the agonist. This method for determining activity is commonly used for GLP-2 receptor agonist activity analysis at home and abroad.
CHO-K1 cell line stably expressing GLP-2R was stimulated with the agonist at different concentrations. The EC50 value of the agonist was calculated by determining the relative light units after stimulating the cells at each dose.

The target of another test is T2, GLP-1R (Homo sapiens, UniProt P43220).
T2 construct: expressed in transfected cells; host or cells: CHO-K1
T2 sequence (P43220 24-463, species assumed): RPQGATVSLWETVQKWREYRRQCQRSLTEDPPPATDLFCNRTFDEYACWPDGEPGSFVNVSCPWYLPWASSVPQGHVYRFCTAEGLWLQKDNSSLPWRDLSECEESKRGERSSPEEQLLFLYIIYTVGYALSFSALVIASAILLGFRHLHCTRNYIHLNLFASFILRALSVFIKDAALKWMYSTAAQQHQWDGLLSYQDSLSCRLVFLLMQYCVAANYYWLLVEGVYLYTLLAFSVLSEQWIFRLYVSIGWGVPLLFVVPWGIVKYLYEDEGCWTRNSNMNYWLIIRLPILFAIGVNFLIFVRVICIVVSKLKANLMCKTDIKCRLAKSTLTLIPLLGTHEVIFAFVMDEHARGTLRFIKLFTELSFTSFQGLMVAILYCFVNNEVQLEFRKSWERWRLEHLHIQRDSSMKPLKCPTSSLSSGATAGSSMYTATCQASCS
Kind of test: Determination of GLP-1 activity: cAMP chemiluminescence (RLU) in CHO-K1 cell line stably expressing GLP-1R. It is filed as cell-based. The note with it: read-out: GLP-1 activity [EC50 (pmol)]. As to the method: as §1, with “GLP-1R,” for “GLP-2R,”, “GLP-1” for “GLP-2”
CHO-K1 cell line stably expressing GLP-1R was stimulated with the agonist at different concentrations. The EC50 value of the agonist was calculated by determining the relative light units after stimulating the cells at each dose.

Test [1] addresses glucagon-like peptide-1 (GLP-1) receptor.
For test [2], the target named is glucagon-like peptide-2 (GLP-2) receptor.

Starred links: 1 amine or outer side, 2 acyl side, 3 side chain; linkers in the order of their positions; H or OH if unused. Non-standard residues stand in square brackets, D forms with d. Residues, ends and D or L forms follow the SMILES beside them. Groups on a side chain read outwards from the residue. No end group written: not given here. *: point of attachment. C18 diacid = O=C(O)CCCCCCCCCCCCCCCCC(=O)*; γGlu = O=C(O)[C@H](CCC(=O)[*:2])N[*:1]; AEEA = NCCOCCOCC(=O)O; Aib = CC(C)(N)C(=O)O; AEA = NCCOCC(=O)O

One may read the EC50 as the midpoint of the concentration-response curve. Take `CC[C@H](C)[C@H](NC(=O)[C@H](Cc1ccccc1)NC(=O)[C@H](CC(=O)O)NC(=O)[C@H](CCCNC(=N)N)NC(=O)[C@H](C)NC(=O)[C@H](C)NC(=O)[C@H](CCC(N)=O)NC(=O)[C@H](CCCCNC(=O)COCCNC(=O)CC[C@H](NC(=O)CCCCCCCCCCCCCCCCC(=O)O)C(=O)O)NC(=O)[C@H](CC(=O)O)NC(=O)[C@H](CC(C)C)NC(=O)[C@@H](NC(=O)[C@@H](NC(=O)[C@H](C)NC(=O)[C@H](CC(C)C)NC(=O)[C@H](CCC(=O)O)NC(=O)[C@H](CO)NC(=O)[C@@H](NC(=O)[C@H](Cc1ccccc1)NC(=O)[C@H](CO)NC(=O)CNC(=O)[C@H](CCC(=O)O)NC(=O)C(C)(C)NC(=O)[C@@H](N)Cc1c[nH]cn1)[C@@H](C)O)[C@@H](C)O)[C@@H](C)CC)C(=O)N[C@@H](C)C(=O)N[C@@H](Cc1c[nH]c2ccccc12)C(=O)N[C@@H](CC(C)C)C(=O)N[C@H](C(=O)N[C@@H](CCC(N)=O)C(=O)N[C@@H](Cc1c[nH]cn1)C(=O)N[C@@H](CCCCN)C(=O)N[C@H](C(=O)N[C@H](C(=O)N[C@@H](CC(=O)O)C(N)=O)[C@@H](C)O)[C@@H](C)CC)[C@@H](C)CC` [Compound 2, His-Aib-Glu-Gly-Ser-Phe-Thr-Ser-Glu-Leu-Ala-Thr-Ile-Leu-Asp-Lys(PEG1CH2CO-γGlu-octadecanedioic acid)-Gln-Ala-Ala-Arg-Asp-Phe-Ile-Ala-Trp-Leu-Ile-Gln-His-Lys-Ile-Thr-Asp-NH2] (H-H[Aib]EGSFTSELATILDK([AEA-γGlu-C18 diacid])QAARDFIAWLIQHKITD-NH2; N-terminus assumed): the results for the EC50 at GLP-2R and at GLP-1R were 5.51 nM and 0.0686 nM, respectively.

For `CC[C@H](C)[C@H](NC(=O)[C@H](Cc1ccccc1)NC(=O)[C@H](CC(=O)O)NC(=O)[C@H](CCCNC(=N)N)NC(=O)[C@H](C)NC(=O)[C@H](C)NC(=O)[C@H](CCC(N)=O)NC(=O)[C@H](CCCCNC(=O)COCCOCCNC(=O)CC[C@H](NC(=O)CCCCCCCCCCCCCCCCC(=O)O)C(=O)O)NC(=O)[C@H](CC(=O)O)NC(=O)[C@H](CC(C)C)NC(=O)[C@@H](NC(=O)[C@@H](NC(=O)[C@H](C)NC(=O)[C@H](CC(C)C)NC(=O)[C@H](CCC(=O)O)NC(=O)[C@H](CO)NC(=O)[C@@H](NC(=O)[C@H](Cc1ccccc1)NC(=O)[C@H](CO)NC(=O)CNC(=O)[C@H](CCC(=O)O)NC(=O)C(C)(C)NC(=O)[C@@H](N)Cc1c[nH]cn1)[C@@H](C)O)[C@@H](C)O)[C@@H](C)CC)C(=O)N[C@@H](C)C(=O)N[C@@H](Cc1c[nH]c2ccccc12)C(=O)N[C@@H](CC(C)C)C(=O)N[C@H](C(=O)N[C@@H](CCC(N)=O)C(=O)N[C@@H](Cc1c[nH]cn1)C(=O)N[C@@H](CCCCN)C(=O)N[C@H](C(=O)N[C@H](C(=O)N[C@@H](CC(=O)O)C(N)=O)[C@@H](C)O)[C@@H](C)CC)[C@@H](C)CC` [Compound 3, His-Aib-Glu-Gly-Ser-Phe-Thr-Ser-Glu-Leu-Ala-Thr-Ile-Leu-Asp-Lys(AEEA-γGlu-octadecanedioic acid)-Gln-Ala-Ala-Arg-Asp-Phe-Ile-Ala-Trp-Leu-Ile-Gln-His-Lys-Ile-Thr-Asp-NH2] (H-H[Aib]EGSFTSELATILDK([AEEA-γGlu-C18 diacid])QAARDFIAWLIQHKITD-NH2), the figures for the EC50 at GLP-2R and on GLP-1R were 4.7 nM and 0.0601 nM, respectively.

As to H[Aib]EGSFTSELATILDK([PEG3CH2CO-γGlu-C18 diacid])QAARDFIAWLIQHKITD-NH2 [Compound 4], the GLP-1 activity [EC50 (pmol)] in test [1] worked out at 60 pmol. Further, the GLP-2 activity [EC50 (nmol)] in test [2] worked out at 4.33 nmol.

In test [1], H[Aib]EGSFTSELATILDK([PEG1CH2CO-γGlu-C18 diacid])QAARDFIAWLIQHKITD-NH2 [Compound 2] showed a GLP-1 activity [EC50 (pmol)] of 68.7 pmol. Further, in test [2], the GLP-2 activity [EC50 (nmol)] worked out at 5.51 nmol.

The molecule H[Aib]EGSFTSELATILDK([PEG5CH2CO-γGlu-C18 diacid])QAARDFIAWLIQHKITD-NH2 [Compound 6] yielded a GLP-1 activity [EC50 (pmol)] in test [1] of 79.5 pmol. For the same molecule, the GLP-2 activity [EC50 (nmol)] in test [2] was 4.62 nmol.

Consider H[Aib]EGSFTSELATILDK([PEG4CH2CO-γGlu-C18 diacid])QAARDFIAWLIQHKITD-NH2 [Compound 5], for which the GLP-1 activity [EC50 (pmol)] in test [1] was found to be 72.8 pmol. In test [2], the GLP-2 activity [EC50 (nmol)] was 5.54 nmol.

B1: Compound 3 (peptide)
peptide: H[Aib]EGSFTSELATILDK([AEEA-γGlu-C18 diacid])QAARDFIAWLIQHKITD-NH2
modifications: N-terminus assumed
SMILES: CC[C@H](C)[C@H](NC(=O)[C@H](Cc1ccccc1)NC(=O)[C@H](CC(=O)O)NC(=O)[C@H](CCCNC(=N)N)NC(=O)[C@H](C)NC(=O)[C@H](C)NC(=O)[C@H](CCC(N)=O)NC(=O)[C@H](CCCCNC(=O)COCCOCCNC(=O)CC[C@H](NC(=O)CCCCCCCCCCCCCCCCC(=O)O)C(=O)O)NC(=O)[C@H](CC(=O)O)NC(=O)[C@H](CC(C)C)NC(=O)[C@@H](NC(=O)[C@@H](NC(=O)[C@H](C)NC(=O)[C@H](CC(C)C)NC(=O)[C@H](CCC(=O)O)NC(=O)[C@H](CO)NC(=O)[C@@H](NC(=O)[C@H](Cc1ccccc1)NC(=O)[C@H](CO)NC(=O)CNC(=O)[C@H](CCC(=O)O)NC(=O)C(C)(C)NC(=O)[C@@H](N)Cc1c[nH]cn1)[C@@H](C)O)[C@@H](C)O)[C@@H](C)CC)C(=O)N[C@@H](C)C(=O)N[C@@H](Cc1c[nH]c2ccccc12)C(=O)N[C@@H](CC(C)C)C(=O)N[C@H](C(=O)N[C@@H](CCC(N)=O)C(=O)N[C@@H](Cc1c[nH]cn1)C(=O)N[C@@H](CCCCN)C(=O)N[C@H](C(=O)N[C@H](C(=O)N[C@@H](CC(=O)O)C(N)=O)[C@@H](C)O)[C@@H](C)CC)[C@@H](C)CC
In test [1], B1 yielded a GLP-1 activity [EC50 (pmol)] of 60.1 pmol. The GLP-2 activity [EC50 (nmol)] in test [2] was found to be 4.7 nmol.

B2: Compound 1 (peptide)
peptide: H[Aib]EGSFTSELATILDK([γGlu-C18 diacid])QAARDFIAWLIQHKITD-NH2
modifications: N-terminus assumed
SMILES: CC[C@H](C)[C@H](NC(=O)[C@H](Cc1ccccc1)NC(=O)[C@H](CC(=O)O)NC(=O)[C@H](CCCNC(=N)N)NC(=O)[C@H](C)NC(=O)[C@H](C)NC(=O)[C@H](CCC(N)=O)NC(=O)[C@H](CCCCNC(=O)CC[C@H](NC(=O)CCCCCCCCCCCCCCCCC(=O)O)C(=O)O)NC(=O)[C@H](CC(=O)O)NC(=O)[C@H](CC(C)C)NC(=O)[C@@H](NC(=O)[C@@H](NC(=O)[C@H](C)NC(=O)[C@H](CC(C)C)NC(=O)[C@H](CCC(=O)O)NC(=O)[C@H](CO)NC(=O)[C@@H](NC(=O)[C@H](Cc1ccccc1)NC(=O)[C@H](CO)NC(=O)CNC(=O)[C@H](CCC(=O)O)NC(=O)C(C)(C)NC(=O)[C@@H](N)Cc1c[nH]cn1)[C@@H](C)O)[C@@H](C)O)[C@@H](C)CC)C(=O)N[C@@H](C)C(=O)N[C@@H](Cc1c[nH]c2ccccc12)C(=O)N[C@@H](CC(C)C)C(=O)N[C@H](C(=O)N[C@@H](CCC(N)=O)C(=O)N[C@@H](Cc1c[nH]cn1)C(=O)N[C@@H](CCCCN)C(=O)N[C@H](C(=O)N[C@H](C(=O)N[C@@H](CC(=O)O)C(N)=O)[C@@H](C)O)[C@@H](C)CC)[C@@H](C)CC
In the case of B2, the GLP-1 activity [EC50 (pmol)] in test [1] came out at 94.7 pmol. The molecule further had a GLP-2 activity [EC50 (nmol)] in test [2] of 6.04 nmol.

These data come from patent US20250154226A1, “LONG-ACTING GLP-1/GLP-2 DUAL AGONIST COMPOUND” (CHENGDU AODA BIOTECHNOLOGY CO., LTD, priority 2022, published 2025).
